Experimental findings from patent publication US20200071412A1 (ROCKEFELLER UNIVERSITY, published 2020) are described below.

The target in test [1] is human FcγRIIa-H131 (human) (UniProt P12318). Kind of test: Fc variant affinity for Fcγ receptor; method not stated.
Test [2] deals with human FcγRIIa-R131 (human) (UniProt P12318). The test is described as above.
In another test the target is human FcγRIIb (human) (UniProt P31994). The description is as above.
Test [3] addresses T1, human FcγRIIa-H131 (human, UniProt P12318 34-217, limits assumed).
T1 construct: also called hCD32a/FcγRIIa-H131
T1 sequence (looked up): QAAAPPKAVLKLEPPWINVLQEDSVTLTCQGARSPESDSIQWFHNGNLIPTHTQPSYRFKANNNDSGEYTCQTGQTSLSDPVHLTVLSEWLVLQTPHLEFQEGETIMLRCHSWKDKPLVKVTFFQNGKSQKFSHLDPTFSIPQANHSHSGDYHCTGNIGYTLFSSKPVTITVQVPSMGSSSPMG
Kind of test: BLI (FORTEBIO Octet), %Rmax; supernatant 5F11-45-V9-DT-sup; receptor hCD32a/FcγRIIa-H131.

Test [4] deals with T1, human FcγRIIa-H131. Kind of test: BLI (FORTEBIO Octet), %Rmax; supernatant 12D6-24-V9-DT-sup; receptor hCD32a/FcγRIIa-H131. For orientation: In BLI a coated tip is dipped into the sample, and binding shifts an interference pattern.

Sequence of human FcγRIIb (human) (P31994 43-217 limits assumed): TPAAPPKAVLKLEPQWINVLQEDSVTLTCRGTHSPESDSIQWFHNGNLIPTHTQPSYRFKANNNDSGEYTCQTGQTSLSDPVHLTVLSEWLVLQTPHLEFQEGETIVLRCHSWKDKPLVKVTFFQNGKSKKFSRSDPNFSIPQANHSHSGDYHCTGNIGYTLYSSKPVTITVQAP

For orientation: Kd means the constant that tells how readily two partners part at equilibrium. For “Fc sequence variant IgG1f (antibody with human IgG1f constant domain)”, the Kd in test [1] worked out at 530 nM; in test [2], 850 nM; in the test with human FcγRIIb (human), 3900 nM.
As to Fc sequence variant SE (antibody), the Kd amounted to 520 nM in test [1], 22 nM in test [2] and 98 nM in the test with human FcγRIIb (human).
For Fc sequence variant SELF (antibody), the Kd in test [2] was 2 nM.
Fc sequence variant P238D (antibody) came in with a Kd with human FcγRIIb (human) of 950 nM.

B1: 5F11-45-V9-DT-sup (antibody, human IgG1, kappa)
heavy chain: QVQLVQSGAEVKKPGSSVKVSCKASGYTFTDLSMHWVRQAPGQGLEWMGYITPSSGYTAYNQKFKGKTTLTADKSTSTAYMELSSLRSEDTAVYYCARLILQRGAYWGQGTLVTVSSASTKGPSVFPLAPSSKSTSGGTAALGCLVKDYFPEPVTVSWNSGALTSGVHTFPAVLQSSGLYSLSSVVTVPSSSLGTQTYICNVNHKPSNTKVDKRVEPKSCDKTHTCPPCPAPELLGDDSVFLFPPKPKDTLMISRTPEVTCVVVDVSHETGEVKFNWYVDGVEVHNAKTKPREEQYNSTYRVVSVLTVLHQDWLNGKEYKCKVSNKALPRPIEKTISKAKGQPREPQVYTLPPSREEMTKNQVSLTCLVKGFYPSDIAVEWESNGQPENNYKTTPPVLDSDGSFFLYSKLTVDKSRWQQGNVFSCSVMHEALHNHYTQKSLSLSPG
light chain: DIVLTQSPDSLAVSLGERATINCRASKNVDSYGNSFMHWYQQKPGQPPKLLIYRASNLESGVPDRFSGSGSGTDFTLTISSLQAEDVAVYYCQQSNEDPLTFGQGTKLEIKRTVAAPSVFIFPPSDEQLKSGTASVVCLLNNFYPREAKVQWKVDNALQSGNSQESVTEQDSKDSTYSLSSTLTLSKADYEKHKVYACEVTHQGLSSPVTKSFNRGEC
notes: Tested as a supernatant of antibody producing cells; also called 5F11-45 V9 D270T
Turning to B1, in the test with human FcγRIIa-H131 [3], the binding result is listed as “no binding (tested: 10 µM)”.

B2: 12D6-24-V9-DT-sup (antibody)
heavy: QVQLVQSGAEVKKPGASVKVSCKASGYTFTGYNMNWVRQAPGQGLEWMGNIDPYYGNTNYNQKFKGRVTMTTDTSTSTAYMELRSLRSDDTAVYYCARLGLQLYALDYWGQGTTVTVSSASTKGPSVFPLAPSSKSTSGGTAALGCLVKDYFPEPVTVSWNSGALTSGVHTFPAVLQSSGLYSLSSVVTVPSSSLGTQTYICNVNHKPSNTKVDKRVEPKSCDKTHTCPPCPAPELLGDDSVFLFPPKPKDTLMISRTPEVTCVVVDVSHETGEVKFNWYVDGVEVHNAKTKPREEQYNSTYRVVSVLTVLHQDWLNGKEYKCKVSNKALPRPIEKTISKAKGQPREPQVYTLPPSREEMTKNQVSLTCLVKGFYPSDIAVEWESNGQPENNYKTTPPVLDSDGSFFLYSKLTVDKSRWQQGNVFSCSVMHEALHNHYTQKSLSLSPG
light: DIVMTQTPLSLPVTPGEPASISCRSSQSLVHSNANTYLHWYLQKPGQSPQLLIYKLTNRFFGVPDRFSGSGSGTDFTLKISRVEAEDVGVYYCSQSIHVPWTFGGGTKVEIKRTVAAPSVFIFPPSDEQLKSGTASVVCLLNNFYPREAKVQWKVDNALQSGNSQESVTEQDSKDSTYSLSSTLTLSKADYEKHKVYACEVTHQGLSSPVTKSFNRGEC
notes: Tested as a supernatant of antibody producing cells; also called 12D6-24 V9 D270T; copies: 2 + 2
As for B2, the binding result in the test with human FcγRIIa-H131 [4] is “no binding (tested: 10 µM)”.
